In the supplement of paper PMC7877785:
± gives the uncertainty stated by the source.

Assay: self-splicing fitness, log relative to wild type (ln ratio); higher = more splicing; Tetrahymena group I intron in knt gene, E. coli kanamycin selection, DiMSum; sequences stand for … in CUCUCU…GGAGGGAAAAGUUAUCAGGCAUGCACCUGGUAGCUAGUCUUUAAACCAAUAGAUUGCAUCGGUUUAAAAGGCAAGACCGUCAAAUUGCGGGAAAGGGGUCAACAGCCGUUCAGUACCAAGUCUCAGGGGAAACUUUGAGAUGGCCUUGCAAAGGGUAUGGUAAUAAGCUGACGGACAUGGUCCUAACCACGCAGCCAAGUCCUAAGUCAACAGAUCUUCUGUUGAUAUGGAUGCAGUUCACAGACUAAAUGUCGGUCGGGGAAGAUGUAUUCUUCUCAUAAGAUAUAGUCGGACCUCUCCUUAAUGGGAGCUAGCGGAUGAAGUGAUGCAACACUGGAGCCGCUGGGAACUAAUUUGUAUGCGAAAGUAUAUUGAUUAGUUUUGGAGUACUCGUGGUCG
In short: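 Colonies from six replicate transformations of E. coli BL21(DE3) were pooled and amplicon-sequenced on an Illumina HiSeq 2500. The library placed an intron with all eight P1ex-region nucleotides randomised inside the knt kanamycin-resistance gene on pET-22b(+), and cells grew overnight at 37°C or 30°C on LB agar with or without 25 μg/mL kanamycin (plus 100 μg/mL carbenicillin, 50 μM IPTG, 0.2% rhamnose). Fitness is the DiMSum error-weighted combination of wild-type-normalised replicate fold changes, kanamycin versus none.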

| Sequence | self-splicing fitness (ln) (30 °C) | self-splicing fitness (ln) (37 °C) |
| --- | --- | --- |
| GGGUAGCAAUAUUACGAGUU | -0.948 ± 0.092 | -1.38 ± 0.2 |
| UCAAAGCAAUAUUACGUCGG | -0.93 ± 0.056 | -0.055 ± 0.079 |
| UACAAGCAAUAUUACGCGGC | -3.59 ± 0.24 | -2.91 ± 0.31 |
| CCCCAGCAAUAUUACGAUCC | -3.27 ± 0.27 | -0.776 ± 0.32 |
| AUUAAGCAAUAUUACGCCUA | -0.154 ± 0.086 | 0.195 ± 0.11 |
| GCACAGCAAUAUUACGUUUC | -1.61 ± 0.063 | -0.982 ± 0.084 |
| UGAUAGCAAUAUUACGGGAU | -2.03 ± 0.17 | -2.15 ± 0.26 |
| ACCUAGCAAUAUUACGGCCA | -1.33 ± 0.13 | -0.234 ± 0.12 |
| CCUCAGCAAUAUUACGAAUC | -3.45 ± 0.28 | -2.82 ± 0.31 |
| GUCUAGCAAUAUUACGCGGC | – | -2.87 ± 0.4 |
| GUUAAGCAAUAUUACGCCCU | -0.813 ± 0.14 | -0.242 ± 0.11 |
| ACUCAGCAAUAUUACGCCUG | -3.39 ± 0.22 | -1.5 ± 0.2 |
| GGCUAGCAAUAUUACGCAAU | -0.887 ± 0.14 | -0.69 ± 0.16 |
| AAUAAGCAAUAUUACGCGUC | -1.45 ± 0.13 | -1.15 ± 0.16 |
| CGCUAGCAAUAUUACGGAGU | -3.65 ± 0.27 | -2.42 ± 0.25 |
| UCCAAGCAAUAUUACGCCAU | -4.34 ± 0.28 | -3.21 ± 0.27 |
| AGUAAGCAAUAUUACGACUU | -0.394 ± 0.068 | -0.58 ± 0.097 |
| UCCCAGCAAUAUUACGAGCA | -0.711 ± 0.1 | 0.0665 ± 0.13 |
| CCAGAGCAAUAUUACGGCCU | -2.77 ± 0.13 | -1.27 ± 0.17 |
| CCGAAGCAAUAUUACGCUUC | -3.15 ± 0.27 | -3.2 ± 0.34 |
| UCUUAGCAAUAUUACGCUAU | -4.16 ± 0.25 | -2.03 ± 0.18 |
| ACCUAGCAAUAUUACGUGAU | -1.5 ± 0.057 | -0.344 ± 0.074 |
| AGUAAGCAAUAUUACGGCAG | -2.1 ± 0.16 | -1.53 ± 0.2 |
| UACCAGCAAUAUUACGCUUG | -1.01 ± 0.073 | -0.79 ± 0.095 |

| Sequence | self-splicing fitness (ln) (30 °C) | self-splicing fitness (ln) (37 °C) |
| --- | --- | --- |
| AGGCAGCAAUAUUACGAUAU | -1.27 ± 0.069 | -0.399 ± 0.091 |
| UCUUAGCAAUAUUACGAAGA | -3.02 ± 0.49 | -2.64 ± 0.38 |
| ACCGAGCAAUAUUACGUGAA | -4.46 ± 0.17 | -2.3 ± 0.14 |
| ACCUAGCAAUAUUACGCCUC | -1.88 ± 0.13 | -1.51 ± 0.15 |
| UCAGAGCAAUAUUACGUAUG | -2.12 ± 0.23 | -2.37 ± 0.31 |
| GCUAAGCAAUAUUACGACCU | -0.833 ± 0.1 | 0.599 ± 0.12 |
| ACUGAGCAAUAUUACGAUUU | -1.12 ± 0.082 | -0.446 ± 0.12 |
| UAGCAGCAAUAUUACGCAUG | -0.793 ± 0.096 | -1.17 ± 0.14 |
| AGUCAGCAAUAUUACGUCGG | -0.874 ± 0.086 | -1.23 ± 0.11 |
| UCAUAGCAAUAUUACGCAAU | -3.1 ± 0.19 | -2.84 ± 0.28 |
| CCAUAGCAAUAUUACGCUGC | -3.84 ± 0.3 | -2.25 ± 0.27 |
| CGCCAGCAAUAUUACGACGC | -3.21 ± 0.2 | -2.97 ± 0.35 |
| ACCUAGCAAUAUUACGUAAC | -2.22 ± 0.12 | -1.66 ± 0.18 |
| GGCCAGCAAUAUUACGCUAC | -4.15 ± 0.3 | -2.57 ± 0.23 |
| AUAUAGCAAUAUUACGUAAU | -1.02 ± 0.073 | -0.751 ± 0.12 |
| CGGUAGCAAUAUUACGCAGA | -1.8 ± 0.29 | -1.91 ± 0.2 |
| UCGAAGCAAUAUUACGGAGG | -2.79 ± 0.32 | -1.82 ± 0.41 |
| UUCGAGCAAUAUUACGAUGG | -3.47 ± 0.26 | -1.45 ± 0.33 |
| GCACAGCAAUAUUACGGUGU | -3.58 ± 0.14 | -3.45 ± 0.29 |
| AACAAGCAAUAUUACGUUCG | -2.86 ± 0.1 | -1.76 ± 0.13 |
| GAUUAGCAAUAUUACGACUA | -0.765 ± 0.17 | 0.0117 ± 0.13 |
| UCAAAGCAAUAUUACGCCUC | – | -1.91 ± 0.37 |
| UAGUAGCAAUAUUACGACCA | -0.4 ± 0.15 | 0.221 ± 0.17 |
| AGGCAGCAAUAUUACGCCGC | -2.8 ± 0.18 | -2.66 ± 0.29 |

| Sequence | self-splicing fitness (ln) (30 °C) | self-splicing fitness (ln) (37 °C) |
| --- | --- | --- |
| GCAAAGCAAUAUUACGAUAG | -2.23 ± 0.11 | -0.989 ± 0.12 |
| GGCGAGCAAUAUUACGGUUG | -2.57 ± 0.14 | -0.892 ± 0.16 |
| AUCGAGCAAUAUUACGUCCA | – | 0.309 ± 0.47 |
| CGCAAGCAAUAUUACGCACG | -2.96 ± 0.23 | -1.24 ± 0.17 |
| AACGAGCAAUAUUACGCACG | -2.8 ± 0.38 | -0.837 ± 0.25 |
| UCCUAGCAAUAUUACGGGUC | -3.81 ± 0.22 | -2.71 ± 0.28 |
| AUUUAGCAAUAUUACGGGGU | -3.47 ± 0.26 | -2.32 ± 0.19 |
| ACGAAGCAAUAUUACGCACA | -0.494 ± 0.096 | -0.0286 ± 0.098 |
| GGCGAGCAAUAUUACGACUA | -0.848 ± 0.12 | -0.00409 ± 0.11 |
| CUCGAGCAAUAUUACGUAUA | – | -2.29 ± 0.31 |
| AAUAAGCAAUAUUACGCCUC | -2.43 ± 0.35 | -1.19 ± 0.31 |
| GUUCAGCAAUAUUACGACGA | -1.26 ± 0.21 | -0.637 ± 0.18 |
| AAGCAGCAAUAUUACGUUCA | -0.676 ± 0.056 | 0.0201 ± 0.064 |
| CCCAAGCAAUAUUACGCUUU | -3.91 ± 0.2 | -1.85 ± 0.17 |
| AAUAAGCAAUAUUACGUCAU | -1.39 ± 0.062 | -0.608 ± 0.092 |
| CGCGAGCAAUAUUACGUUUG | -4.03 ± 0.21 | -1.91 ± 0.18 |
| UAGGAGCAAUAUUACGGUGG | -2.79 ± 0.21 | -0.497 ± 0.17 |
| GCUGAGCAAUAUUACGUUAU | -2.96 ± 0.25 | -2.33 ± 0.28 |
| CUAUAGCAAUAUUACGGUCA | -1.82 ± 0.19 | -1.7 ± 0.24 |
| ACUGAGCAAUAUUACGAGAC | -2.78 ± 0.22 | -2.63 ± 0.2 |
| AGCGAGCAAUAUUACGCUUC | -3.16 ± 0.24 | -2.02 ± 0.28 |
| GCCGAGCAAUAUUACGUCCA | -1.27 ± 0.48 | -1.32 ± 0.32 |
| UUCGAGCAAUAUUACGACAA | -0.778 ± 0.23 | 0.45 ± 0.23 |
| GUAUAGCAAUAUUACGCGAU | -2.03 ± 0.24 | -1.73 ± 0.26 |

| Sequence | self-splicing fitness (ln) (30 °C) | self-splicing fitness (ln) (37 °C) |
| --- | --- | --- |
| GUUCAGCAAUAUUACGUAUU | -0.531 ± 0.057 | -0.576 ± 0.074 |
| GCAAAGCAAUAUUACGCUGC | -3.72 ± 0.42 | – |
| UGUAAGCAAUAUUACGCUCA | -0.207 ± 0.11 | 0.681 ± 0.18 |
| GCACAGCAAUAUUACGGAAA | -2.39 ± 0.2 | 0.239 ± 0.16 |
| AUCAAGCAAUAUUACGUAGG | -2.91 ± 0.1 | -1.51 ± 0.11 |
| CUCCAGCAAUAUUACGAGUC | -3.83 ± 0.34 | -2.15 ± 0.26 |
| UGCGAGCAAUAUUACGAGGG | -2.1 ± 0.13 | -2.3 ± 0.17 |
| GCACAGCAAUAUUACGCGCG | -1.05 ± 0.066 | -0.445 ± 0.075 |
| GGUUAGCAAUAUUACGGUCA | 0.387 ± 0.31 | -1.03 ± 0.12 |
| AUGUAGCAAUAUUACGGCCA | -0.669 ± 0.21 | -0.586 ± 0.22 |
| UGGAAGCAAUAUUACGAUCG | 0.288 ± 0.14 | 0.382 ± 0.15 |
| CAAGAGCAAUAUUACGUGUA | -3.48 ± 0.17 | -2.42 ± 0.17 |
| ACCCAGCAAUAUUACGCAUU | -0.546 ± 0.043 | 0.216 ± 0.061 |
| AACCAGCAAUAUUACGCUGG | -2.8 ± 0.14 | -2.25 ± 0.19 |
| CUUCAGCAAUAUUACGAAGA | -3.72 ± 0.4 | -2.33 ± 0.21 |
| ACAAAGCAAUAUUACGGGCA | -1.56 ± 0.069 | -1.28 ± 0.056 |
| UUUCAGCAAUAUUACGCAUU | -1.93 ± 0.14 | -1.08 ± 0.11 |
| UUCUAGCAAUAUUACGGCUU | -3.3 ± 0.39 | -2.22 ± 0.28 |
| UACCAGCAAUAUUACGUUUU | -1.51 ± 0.094 | -2.37 ± 0.15 |
| AUGAAGCAAUAUUACGUAUC | -4.1 ± 0.24 | -1.99 ± 0.18 |
| GCUAAGCAAUAUUACGACUG | -0.97 ± 0.1 | -0.946 ± 0.14 |
| UCAAAGCAAUAUUACGACGC | -3.24 ± 0.16 | -2.09 ± 0.14 |
| GCCUAGCAAUAUUACGGUUA | -1.47 ± 0.11 | -0.443 ± 0.091 |
| CGUCAGCAAUAUUACGAGUG | -0.944 ± 0.056 | -0.00372 ± 0.077 |
